Measurements reported in US12540161B2, “Linkers” (BicycleTx Limited, priority 2020, dated 2026).

Tests used:
[1] = Plasma stability analysis, mouse plasma; conditions: plasma, BTCs
Procedure: Pooled frozen plasma was thawed in a water bath at 37° C. Plasma was centrifuged at 4000 rpm for 5 min and the clots were removed if any. The pH will be adjusted to 7.4±0.1 if required. 1 mM stock solution was prepared with DMSO. Propantheline (positive control) was prepared by making a 100 μM working solution by diluting 5 μL of the stock solution (10 mM) with 495 μL ultra pure water. 100 μM working solutions of test compounds were made up by diluting 10 μL of the stock solution (1 mM) with 90 μL DMSO. 98 μL of blank plasma was spiked with 2 μL of dosing solution (100 μM) to achieve 2 μM of the final concentration in duplicate and samples were incubated at 37° C. in a water bath. […] An aliquot of supernatant (150 μL) was transferred from each well before submitting for LC-MS/MS analysis.
The % remaining test compound after incubation in plasma was calculated using following equation: Remaining=100×(PAR at appointed incubation time/PAR at T0 time)
where PAR is the peak area ratio of analyte versus internal standard (IS).
The half-life (T½) was calculated from a log linear plot of concentration versus time.

in vitro [2] = conditions: rat, plasma, pH 7.4
Procedure: (§1) Pooled frozen plasma was thawed in a water bath at 37° C. Plasma was centrifuged at 4000 rpm for 5 min and the clots were removed if any. The pH will be adjusted to 7.4±0.1 if required. 1 mM stock solution was prepared with DMSO. Propantheline (positive control) was prepared by making a 100 μM working solution by diluting 5 μL of the stock solution (10 mM) with 495 μL ultra pure water. 100 μM working solutions of test compounds were made up by diluting 10 μL of the stock solution (1 mM) with 90 μL DMSO. 98 μL of blank plasma was spiked with 2 μL of dosing solution (100 μM) to achieve 2 μM of the final concentration in duplicate and samples were incubated at 37° C. in a water bath. At each time point (0, 1, 2, 4, 6 and 24 hr), 400 μL of 200 ng/mL tolbutamide and labetalol in 100% MeOH was added and mixed thoroughly to precipitate proteins. Sample plates were centrifuged at 4,000 rpm for 15 min. An aliquot of supernatant (150 μL) was transferred from each well before submitting for LC-MS/MS analysis.
(§2) The appointed incubation time points are T0 (0 hr), Tn (n=0, 1, 2, 4, 6, 24 hr). The half-life (T½) was calculated from a log linear plot of concentration versus time.
(§3) When the % remaining value at the maximal incubation time, which was 24 hr in this study, was higher than 75%, it is considered to be within the acceptable experimental variation.

in vivo = conditions: male, CD-1, mouse, plasma, intravenous
Procedure: Male CD-1 mice were dosed with each Bicycle Conjugate formulated in 25 mM histidine HCl, 10% sucrose pH 7 via tail vein injection. Serial bleeding (about 80 μL blood/time point) was performed via submadibular or saphenous vein at each time point. All blood samples were immediately transferred into prechilled microcentrifuge tubes containing 2 μL K2-EDTA (0.5M) as anti-coagulant and placed on wet ice. Blood samples were immediately processed for plasma by centrifugation at approximately 4° C., 3000 g. The precipitant including internal standard (350 μL) was immediately added into the 35 μL plasma sample, mixed well and centrifuged at 3220 g, 4° C. for 15 minutes. The supernatant was transferred into pre-labeled polypropylene microcentrifuge tubes, and then quick-frozen over dry ice. The samples were stored at 70° C. or below as needed until analysis. Supernatant samples were mixed with 50 μL water, vortexed well and centrifuged at 3220 g, 4° C. for 15 minutes. A sample of the supernatant was injected for LC-MS/MS analysis using an Acquity UPLC with AB Sciex 6500+ Triple Quad MS in positive ion mode to determine the concentrations of Bicycle Conjugate and released payload. Plasma concentration versus time data were analyzed by non-compartmental approaches using the Phoenix WinNonlin 6.3 software program. C0, Cl, Vdss, T1/2, AUC(0-inf), MRT(0-last), MRT(0-inf) nd graphs of plasma concentration versus time profile were reported.

in vitro [3] = conditions: human, plasma, pH 7.4
Procedure: as §1, §2, §3

in vitro [4] = conditions: mouse, plasma
Cathepsin B = Cathepsin B (Homo sapiens, UniProt P07858); experiment: Cathepsin B (CatB) cleavage assay; assay type: biochemical; conditions: BTCs; for half-life at 40 μM: read-out: CatB t1/2 (converted)
Procedure: 15 μL of test compound solution (2 mM in DMSO) was added to the incubation plate in duplicate. 30 μL of Cathepsin B stock solution (16 μM) was pre-activated with 1500 μL activation buffer for 10 min at room temperature. The Cathepsin B solution was diluted in 13.17 mL water, then 735 μL activatived enzyme mixture was added to the incubation plate. The mixture was incubated at 37° C. in a waterbath. […] The samples were mixed and centrifuged at 4000 rpm for 20 min. 50 μL of supernatant was taken into a new plate containing 150 μL ultra-pure water and the samples mixed thoroughly before submitting to LC-MS/MS analysis.

in vitro [5] = conditions: cynomolgus monkey, plasma
in vitro [6] = conditions: rat, plasma, Plasma protein binding (% Unbound) Rat
in vitro [7] = conditions: human, plasma
[8] = pH 7.4, Mouse plasma t1/2 (EDTA), EDTA anticoagulant
[9] = pH 7.4, Mouse plasma t1/2 (Herparin), heparin anticoagulant

SMILES | half-life at 2 μM [1, 8] [h] | half-life at 2 μM [1, 9] [h] | half-life at 2 μM (in vitro [2]) [h] | C0 (in vivo) [ng/mL] | Vd (in vivo) [L/kg] | clearance (in vivo) [mL/min/kg] | half-life (in vivo) [h] | half-life at 2 μM (in vitro [3]) [h] | fraction unbound (in vitro [4]) | % Parent remaining after incubation with CatB, 0 h (Cathepsin B) [%] | % Parent remaining after incubation with CatB, 1 h (Cathepsin B) [%] | % Parent remaining after incubation with CatB, 2 h (Cathepsin B) [%] | % Parent remaining after incubation with CatB, 4 h (Cathepsin B) [%] | % Parent remaining after incubation with CatB, 6 h (Cathepsin B) [%] | % Parent remaining after incubation with CatB, 24 h (Cathepsin B) [%] | half-life at 40 μM (Cathepsin B) [h] | fraction unbound (in vitro [5]) | fraction unbound (in vitro [6]) | fraction unbound (in vitro [7]) | half-life at 2 μM ([1]; pH 7.4, Mouse plasma t1/2 expt 2 (EDTA), EDTA anticoagulant, experiment 2) [h]
CC[C@H](C)[C@@H]([C@@H](CC(=O)N1CCC[C@H]1[C@H](OC)[C@@H](C)C(=O)N[C@H](C)[C@@H](O)c1ccccc1)OC)N(C)C(=O)[C@@H](NC(=O)[C@H](C(C)C)N(C)C(=O)OCc1ccc(NC(=O)[C@H](CCCNC(N)=O)NC(=O)[C@@H](NC(=O)[C@H](CCC(=O)O)NC(=O)Cn2cc(CCC(=O)NCCC(=O)N(C)CC(=O)N(C)CC(=O)N(C)CC(=O)N(C)CC(=O)N(C)CC(=O)N(C)CC(=O)N(C)CC(=O)N(C)CC(=O)N(C)CC(=O)N(C)CC(=O)N[C@@H](C)C(=O)N[C@H]3CN(C)Cc4cc5cc(c4)CN(C)C[C@@H](C(N)=O)NC(=O)[C@H](C(C)(C)C)NC(=O)[C@H](CC(=O)O)NC(=O)[C@H](Cc4ccc(O)cc4)NC(=O)[C@H](Cc4ccccc4)NC(=O)[C@H](CC(=O)O)NC(=O)[C@H](CCC(=O)O)NC(=O)[C@H](CSC5)NC(=O)[C@@H](C)NC(=O)[C@H](Cc4cccc5ccccc45)NC(=O)[C@H](CCC(=O)O)NC(=O)[C@H](CC(N)=O)NC(=O)[C@@H](C)NC3=O)nn2)C(C)C)cc1)C(C)C [BCY10980, MMAE-PAB-(Cit-Val-Glu)-BCY3900] | > 57.8 | > 57.8 | > 57.8 | 40200 | 0.2 | 4.8 | 0.64 | 40 | 0.187 | 100 | 0 | 0 | 0 | 0 | 0 | < 0.2 | – | – | – | –
CC[C@H](C)[C@@H]([C@@H](CC(=O)N1CCC[C@H]1[C@H](OC)[C@@H](C)C(=O)N[C@H](C)[C@@H](O)c1ccccc1)OC)N(C)C(=O)[C@@H](NC(=O)[C@H](C(C)C)N(C)C(=O)OCc1ccc(NC(=O)[C@H](CCN)NC(=O)[C@@H](NC(=O)[C@H](CCC(=O)O)NC(=O)Cn2cc(CCC(=O)NCCC(=O)N(C)CC(=O)N(C)CC(=O)N(C)CC(=O)N(C)CC(=O)N(C)CC(=O)N(C)CC(=O)N(C)CC(=O)N(C)CC(=O)N(C)CC(=O)N(C)CC(=O)N[C@@H](C)C(=O)N[C@H]3CN(C)Cc4cc5cc(c4)CN(C)C[C@@H](C(N)=O)NC(=O)[C@H](C(C)(C)C)NC(=O)[C@H](CC(=O)O)NC(=O)[C@H](Cc4ccc(O)cc4)NC(=O)[C@H](Cc4ccccc4)NC(=O)[C@H](CC(=O)O)NC(=O)[C@H](CCC(=O)O)NC(=O)[C@H](CSC5)NC(=O)[C@@H](C)NC(=O)[C@H](Cc4cccc5ccccc45)NC(=O)[C@H](CCC(=O)O)NC(=O)[C@H](CC(N)=O)NC(=O)[C@@H](C)NC3=O)nn2)C(C)C)cc1)C(C)C [BCY10981, MMAE-PAB-(Dab-Val-Glu)-BCY3900] | > 57.8 | > 57.8 | > 57.8 | 30700 | 0.15 | 3.9 | 0.6 | 73.8 | 0.288 | 100 | 0 | 0 | 0 | 0 | 0 | < 0.2 | 0.459 | 0.417 | 0.653 | –
CC[C@H](C)[C@@H]([C@@H](CC(=O)N1CCC[C@H]1[C@H](OC)[C@@H](C)C(=O)N[C@H](C)[C@@H](O)c1ccccc1)OC)N(C)C(=O)[C@@H](NC(=O)[C@H](C(C)C)N(C)C(=O)OCc1ccc(NC(=O)[C@H](CCN)NC(=O)[C@H](Cc2cccc3ccccc23)NC(=O)[C@H](CCC(=O)O)NC(=O)Cn2cc(CCC(=O)NCCC(=O)N(C)CC(=O)N(C)CC(=O)N(C)CC(=O)N(C)CC(=O)N(C)CC(=O)N(C)CC(=O)N(C)CC(=O)N(C)CC(=O)N(C)CC(=O)N(C)CC(=O)N[C@@H](C)C(=O)N[C@H]3CN(C)Cc4cc5cc(c4)CN(C)C[C@@H](C(N)=O)NC(=O)[C@H](C(C)(C)C)NC(=O)[C@H](CC(=O)O)NC(=O)[C@H](Cc4ccc(O)cc4)NC(=O)[C@H](Cc4ccccc4)NC(=O)[C@H](CC(=O)O)NC(=O)[C@H](CCC(=O)O)NC(=O)[C@H](CSC5)NC(=O)[C@@H](C)NC(=O)[C@H](Cc4cccc5ccccc45)NC(=O)[C@H](CCC(=O)O)NC(=O)[C@H](CC(N)=O)NC(=O)[C@@H](C)NC3=O)nn2)cc1)C(C)C [BCY10985, MMAE-PAB-(Dab-1Nal-Glu)-BCY3900] | > 57.8 | > 57.8 | > 57.8 | 26400 | 0.18 | 1 | 2.48 | > 57.8 | 0.048 | 100 | 103.62 | 94.8 | 107 | 92.2 | 86.82 | > 57.8 | – | – | 0.234 | –
CC[C@H](C)[C@@H]([C@@H](CC(=O)N1CCC[C@H]1[C@H](OC)[C@@H](C)C(=O)N[C@H](C)[C@@H](O)c1ccccc1)OC)N(C)C(=O)[C@@H](NC(=O)[C@H](C(C)C)N(C)C(=O)OCc1ccc(NC(=O)[C@H](CCN)NC(=O)[C@H](Cc2ccc3ccccc3c2)NC(=O)[C@H](CCC(=O)O)NC(=O)Cn2cc(CCC(=O)NCCC(=O)N(C)CC(=O)N(C)CC(=O)N(C)CC(=O)N(C)CC(=O)N(C)CC(=O)N(C)CC(=O)N(C)CC(=O)N(C)CC(=O)N(C)CC(=O)N(C)CC(=O)N[C@@H](C)C(=O)N[C@H]3CN(C)Cc4cc5cc(c4)CN(C)C[C@@H](C(N)=O)NC(=O)[C@H](C(C)(C)C)NC(=O)[C@H](CC(=O)O)NC(=O)[C@H](Cc4ccc(O)cc4)NC(=O)[C@H](Cc4ccccc4)NC(=O)[C@H](CC(=O)O)NC(=O)[C@H](CCC(=O)O)NC(=O)[C@H](CSC5)NC(=O)[C@@H](C)NC(=O)[C@H](Cc4cccc5ccccc45)NC(=O)[C@H](CCC(=O)O)NC(=O)[C@H](CC(N)=O)NC(=O)[C@@H](C)NC3=O)nn2)cc1)C(C)C [BCY10986, MMAE-PAB-(Dab-2Nal-Glu)-BCY3900] | 50.1 | – | – | – | – | – | – | – | 0.071 | 100 | 9.7346 | 0 | 0 | 0 | 0 | 0.3 | – | 0.115 | – | –
CC[C@H](C)[C@@H]([C@@H](CC(=O)N1CCC[C@H]1[C@H](OC)[C@@H](C)C(=O)N[C@H](C)[C@@H](O)c1ccccc1)OC)N(C)C(=O)[C@@H](NC(=O)[C@H](C(C)C)N(C)C(=O)OCc1ccc(NC(=O)[C@H](CCN)NC(=O)[C@@H](NC(=O)Cn2cc(CCC(=O)NCCC(=O)N(C)CC(=O)N(C)CC(=O)N(C)CC(=O)N(C)CC(=O)N(C)CC(=O)N(C)CC(=O)N(C)CC(=O)N(C)CC(=O)N(C)CC(=O)N(C)CC(=O)N[C@@H](C)C(=O)N[C@H]3CN(C)Cc4cc5cc(c4)CN(C)C[C@@H](C(N)=O)NC(=O)[C@H](C(C)(C)C)NC(=O)[C@H](CC(=O)O)NC(=O)[C@H](Cc4ccc(O)cc4)NC(=O)[C@H](Cc4ccccc4)NC(=O)[C@H](CC(=O)O)NC(=O)[C@H](CCC(=O)O)NC(=O)[C@H](CSC5)NC(=O)[C@@H](C)NC(=O)[C@H](Cc4cccc5ccccc45)NC(=O)[C@H](CCC(=O)O)NC(=O)[C@H](CC(N)=O)NC(=O)[C@@H](C)NC3=O)nn2)C(C)C)cc1)C(C)C [BCY10989, MMAE-PAB-(Dab-Val)-BCY3900] | – | – | – | – | – | – | – | – | – | 100 | 89.4 | 60.7 | 40.4 | 23.2 | 12.8 | 2.8 | – | – | – | 30.8
